Experimental data as given in article PMC7948422, “Repurposing p97 inhibitors for chemical modulation of the bacterial ClpB–DnaK bichaperone system” (The Journal of Biological Chemistry, 2020).

Experiments:
FITC-casein [1] = assay: fluorescence polarisation; fluorescence anisotropy; ClpB E279Q/E678Q titrated into 100-nM FITC-casein with 5-mM ATP and 80-μM DBeQ; fit of a binding isotherm with a Hill number
FITC-casein [2] = assay: fluorescence polarisation; fluorescence anisotropy; ClpB E279Q/E678Q titrated into 100-nM FITC-casein with 5-mM ATP, without DBeQ; fit of a binding isotherm with a Hill number

Kd (FITC-casein [1]): 78.5 nM
Kd (FITC-casein [2]): 77.3 nM
Substance: ClpB E279Q/E678Q (from UniProt P63284 1-857) (enzyme)
